Experimental data: the Immune Epitope Database (IEDB)
pKd: −log10 of the molar value.

Columns and labels:
Assay in all cases: IEDB peptide-MHC binding, purified MHC/competitive/radioactivity; filed as Kd, often an IC50 or EC50 that approximates it; ≥ and ≤ were set here for values at or beyond the usual limits of such assays
[1] = biological target: HLA-A*68:01
[2] = biological target: HLA-A*33:01
[3] = biological target: HLA-A*11:01
[4] = biological target: HLA-A*31:01
[5] = biological target: HLA-A*03:01
[6] = source organism: Vaccinia virus WR
[7] = source organism: SARS coronavirus Tor2
[8] = source organism: Lassa virus Josiah
[9] = source organism: Dengue virus 4 Philippines/H241/1956
[10] = source organism: Dengue virus 2 Jamaica/1409/1983
[11] = source organism: Dengue virus 3 Sri Lanka/1266/2000
[12] = source organism: Dengue virus 3 Martinique/1243/1999
[13] = source organism: Mammarenavirus juninense
[14] = source organism: Dengue virus 1 Brazil/97-11/1997
[15] = source organism: Vaccinia virus Copenhagen
[16] = source organism: Dengue virus 1 Nauru/West Pac/1974

Sequence | pKd [1, 6] | pKd [2, 6] | pKd [3, 6] | pKd [4, 6] | pKd [5, 6] | also measured
AAISKLGINY | 6.55 | 5.92 | 6.45 | 5.85 | 6.49 | 
AFDAPTLYVK | 6.87 | ≤ 4.25 | 6.57 | 5.42 | 5.64 | 
AIMQVFFGY |  |  |  |  |  | pKd [1, 7]: 6.72; pKd [2, 7]: 5.85; pKd [3, 7]: 8.86; pKd [4, 7]: 6.34; pKd [5, 7]: 9.16
AITDNGPMPY | ≤ 4.63 | ≤ 4.30 | 6.47 | ≤ 4.22 | 6.60 | 
ALMSIISTFH |  |  |  |  |  | pKd [2, 8]: 5.44; pKd [5, 8]: 6.21
ASGQRCHFIK | 5.29 | ≤ 4.20 | 7.90 | 5.83 | 6.03 | 
ASNAPSAAK |  |  |  |  |  | pKd ([3]; source organism: Homo sapiens): 7.85
ATFIDVHIPK | 8.46 | 7.36 | 9.57 | 6.04 | 8.04 | 
AVMDIISRK |  |  |  |  |  | pKd [3, 9]: 6.97; pKd [5, 9]: 8.31
CVTQVLMMR |  |  |  |  |  | pKd [1, 10]: 7.00; pKd [2, 10]: 6.46
DIISRRDQR |  |  |  |  |  | pKd [1, 10]: 7.44; pKd [2, 10]: 6.98
DMMLMIGNY | 6.11 | 5.42 | 4.90 | 4.96 | ≤ 4.32 | 
DMSHLKVALY | 6.07 | 4.83 | 5.40 | 6.11 | 5.74 | 
DTDIFSPENK | 7.37 | 4.77 | 5.77 | ≤ 4.65 | 5.23 | 
DYMPSMKRFR |  |  |  |  |  | pKd [2, 10]: 8.71; pKd [4, 10]: 7.36
EIINFTISMR | 8.95 | 8.11 | 5.69 | 6.37 | 5.79 | 
EINKNPKYK |  |  |  |  |  | pKd ([5]; source organism: Homo sapiens): 6.12
ETTHHAVSR |  |  |  |  |  | pKd [1, 11]: 7.72; pKd [2, 11]: 8.33
ETVKMGAFMY | 7.21 | ≤ 4.15 | 5.80 | ≤ 4.50 | ≤ 4.15 | 
EVMRGKFGK |  |  |  |  |  | pKd [1, 12]: 7.25; pKd [3, 12]: 6.07
FFLIVLLIPE |  |  |  |  |  | pKd [2, 10]: 6.49
FIFSALDEK | 7.61 | ≤ 4.18 | 7.19 | ≤ 4.31 | 6.81 | 
FIRRKYLIY | ≤ 4.27 | ≤ 4.28 | ≤ 4.57 | ≤ 4.11 | 5.82 | 
GIALGLMALK |  |  |  |  |  | pKd [5, 12]: 6.66

Sequence | pKd [1, 6] | pKd [2, 6] | pKd [3, 6] | pKd [4, 6] | pKd [5, 6] | also measured
GKQYIHCFRK |  |  |  |  |  | pKd [1, 13]: 5.76; pKd [2, 13]: ≤ 4.53; pKd [3, 13]: 5.82; pKd [4, 13]: 5.44; pKd [5, 13]: 5.66
GSCVYNMMGK |  |  |  |  |  | pKd [3, 12]: 7.59; pKd [5, 12]: 6.98
GSQLAKRFSK |  |  |  |  |  | pKd [3, 14]: 6.97
GTSWFITQR |  |  |  |  |  | pKd [1, 7]: 7.89; pKd [2, 7]: 5.91; pKd [3, 7]: 8.19; pKd [4, 7]: 8.08; pKd [5, 7]: 6.50
HMFAGHLKCK |  |  |  |  |  | pKd [5, 9]: 8.13
HQNSKKTTK |  |  |  |  |  | pKd [1, 7]: ≤ 4.11; pKd [2, 7]: ≤ 4.11; pKd [3, 7]: 5.68; pKd [4, 7]: 5.70; pKd [5, 7]: 5.96
HTTAFFNTCK | 8.67 | 4.85 | 8.84 | 6.95 | 6.74 | 
IAHINTLIQY | 5.82 | 5.16 | 6.01 | 5.06 | 6.42 | 
IFSPENKAFK | 6.74 | 5.61 | 6.12 | 6.16 | 7.02 | 
IINNAVYTK |  |  |  |  |  | pKd [1, 7]: 6.32; pKd [2, 7]: 4.71; pKd [3, 7]: 7.77; pKd [4, 7]: 6.94; pKd [5, 7]: 7.43
ILARNEEGR | 7.06 | 5.98 | ≤ 4.11 | 5.34 | 4.78 | 
IMEIVSHLR | 8.49 | 7.27 | 6.66 | 7.92 | 5.71 | 
IMSIGFEAR | 6.66 | 6.44 | 5.50 | 7.52 | 5.31 | 
IMSMMNITR | 7.52 | 8.39 | 7.21 | 6.29 | 6.06 | 
ISDNKKEYK | 5.47 | 4.98 | 6.44 | 5.74 | 5.70 | 
KFISDNKKEY | ≤ 4.39 | ≤ 4.15 | ≤ 4.16 | 6.37 | ≤ 4.15 | 
KIDKLTFQIY | 5.83 | 4.89 | 4.76 | 5.47 | 5.90 | 
KIMEIVSHLR | 8.62 | 7.20 | 8.44 | 9.25 | 7.14 | 
KLDNHDILTY | 4.79 | ≤ 4.15 | 6.22 | 5.03 | 6.98 | 
KLVYIFEPEK | 5.77 | ≤ 4.15 | 6.81 | 5.04 | 7.27 | 
KQMYRKFSR |  |  |  |  |  | pKd [1, 15]: 5.92; pKd [2, 15]: 5.67; pKd [3, 15]: 7.10; pKd [4, 15]: 8.30; pKd [5, 15]: 6.68
KSAGFPFNK |  |  |  |  |  | pKd [1, 7]: 7.16; pKd [2, 7]: 5.31; pKd [3, 7]: 8.41; pKd [4, 7]: 7.50; pKd [5, 7]: 8.06
KSIQKNTIFK |  |  |  |  |  | pKd ([3]; source organism: Mammarenavirus machupoense): 8.27
KTWMDIEGR |  |  |  |  |  | pKd [1, 8]: 5.74; pKd [2, 8]: 5.77; pKd [3, 8]: 5.95; pKd [4, 8]: 6.92; pKd [5, 8]: 5.07

Sequence | pKd [1, 6] | pKd [2, 6] | pKd [3, 6] | pKd [4, 6] | pKd [5, 6] | also measured
KVTEVKGYTK |  |  |  |  |  | pKd [3, 14]: 6.67
KVVDLGCGR |  |  |  |  |  | pKd [4, 10]: 8.89
LALGFFLRK |  |  |  |  |  | pKd [3, 12]: 8.02; pKd [5, 12]: 8.48
LITENKIWGR |  |  |  |  |  | pKd [4, 16]: ≤ 4.68
LIWAYLSKK | 6.67 | 5.31 | 7.00 | 6.03 | 7.67 | 
LLSGHNLAK |  |  |  |  |  | pKd [1, 7]: 5.18; pKd [2, 7]: ≤ 4.11; pKd [3, 7]: 7.04; pKd [4, 7]: 5.17; pKd [5, 7]: 8.34
LMSAAIKDSK |  |  |  |  |  | pKd [5, 14]: 7.18
LTAVCMKCFK | 8.41 | 5.69 | 8.10 | 7.41 | 7.53 | 
LTRNPAWRK |  |  |  |  |  | pKd [1, 7]: 5.85; pKd [2, 7]: 5.80; pKd [3, 7]: 5.40; pKd [4, 7]: 5.30; pKd [5, 7]: 6.65
LVCFPSTQR | 7.97 | 7.14 | 7.39 | 7.43 | 6.16 | 
MFMLIFNVK | 5.87 | 5.40 | 6.23 | 6.90 | 5.78 | 
MISYGGGWR |  |  |  |  |  | pKd [1, 9]: 6.95
MLNILNRRR |  |  |  |  |  | pKd [4, 10]: 8.08
MLSIINKRKK |  |  |  |  |  | pKd [5, 12]: 6.28
MSAAIKDNR |  |  |  |  |  | pKd [1, 10]: 7.84; pKd [4, 10]: 8.05
MSAAIKDQK |  |  |  |  |  | pKd [1, 9]: 7.29; pKd [3, 9]: 6.32
MVASDVCKK | 7.18 | 5.16 | 6.82 | 5.77 | 6.58 | 
MVSVSDFRDY | 5.40 | ≤ 4.15 | 4.75 | ≤ 4.15 | ≤ 4.15 | 
NAKVGDDVK | 6.32 | 4.77 | 6.41 | 5.00 | ≤ 4.11 | 
NARMATMLEY | 6.34 | ≤ 4.16 | 7.46 | 6.13 | 6.77 | 
NTMCTEETK | 7.90 | 4.80 | 7.55 | ≤ 4.11 | ≤ 4.11 | 
NVPERQLILR | 10.18 | 8.54 | 6.49 | 7.06 | 4.73 | 
NVQFVDINR | 9.40 | 7.90 | 6.71 | 7.42 | ≤ 4.64 | 
PIIVAGFSGK | 5.42 | ≤ 4.34 | 6.12 | ≤ 4.15 | 6.17 | 

Sequence | pKd [1, 6] | pKd [2, 6] | pKd [3, 6] | pKd [4, 6] | pKd [5, 6] | also measured
QLQLLMPLK |  |  |  |  |  | pKd [1, 7]: 4.87; pKd [2, 7]: 5.63; pKd [3, 7]: 7.84; pKd [4, 7]: 5.83; pKd [5, 7]: 6.82
QLVFNSISAR | 7.31 | 6.14 | 6.52 | 6.95 | 6.52 | 
QTPTKLMNK | 6.75 | ≤ 4.11 | 6.51 | ≤ 4.64 | 6.68 | 
RFNVAITRAK |  |  |  |  |  | pKd [1, 7]: 6.77; pKd [2, 7]: 5.11; pKd [3, 7]: 6.75; pKd [4, 7]: 7.19; pKd [5, 7]: 6.77
RIENEMKINR | 6.10 | 4.97 | 5.59 | 6.74 | 5.25 | 
RLLACLCKHK |  |  |  |  |  | pKd [1, 7]: 5.07; pKd [2, 7]: 5.35; pKd [3, 7]: 8.15; pKd [4, 7]: 7.60; pKd [5, 7]: 9.66
RLQLSNGNR |  |  |  |  |  | pKd ([5]; source organism: Homo sapiens): 6.39
RNKRPRLCTR |  |  |  |  |  | pKd [4, 11]: 7.28
RTRDIYISRR |  |  |  |  |  | pKd [1, 8]: 5.77; pKd [2, 8]: 6.14; pKd [3, 8]: 5.37; pKd [4, 8]: 7.55; pKd [5, 8]: 6.41
RVIDLGCGR |  |  |  |  |  | pKd [4, 12]: 8.92
SQGAGWSLK |  |  |  |  |  | pKd [3, 10]: 7.11
TLFVWYFWQK |  |  |  |  |  | pKd [3, 14]: 7.26; pKd [5, 14]: 7.61
TLSLDYAWK |  |  |  |  |  | pKd [5, 14]: 6.74
TTKRDLGMSK |  |  |  |  |  | pKd [3, 12]: 6.94
VLARWGTFK |  |  |  |  |  | pKd [3, 12]: 7.28; pKd [5, 12]: 8.51
VSILASSLLK |  |  |  |  |  | pKd [3, 10]: 7.58; pKd [5, 10]: 8.05
VSTGSQLAK |  |  |  |  |  | pKd [3, 14]: 6.48; pKd [5, 14]: 6.90
VSTVSQLAK |  |  |  |  |  | pKd [3, 16]: 6.61
WYFWQKKKQR |  |  |  |  |  | pKd [2, 14]: 8.09
YQNKVVRVQR |  |  |  |  |  | pKd [4, 10]: ≤ 4.44
YVFSGDPLK |  |  |  |  |  | pKd [1, 9]: 7.91; pKd [3, 9]: 6.80; pKd [5, 9]: 7.07
